Source: article PMC6441497

System: Pho4 (yeast)
Assay: EMSA
Details: EMSA: 10 mM Tris-HCl pH 7.6, 1 mM MgCl2, 60 mM KCl, 3 mg/ml BSA, 1% glycerol, 1% Ficoll, 1 mM DTT, 1 ug poly(dI-dC), 100 ng calf thymus DNA, 20 ul, 10 min …

With 601 free DNA with Pho4 site the Kd was 240 nM.
